Laboratory results as given in patent US20240192215A1 (E AND S HEALTHCARE, published 2024).

B1: monoclonal antibody B264 (antibody, mouse IgG1, kappa, V domains shown)
VH: QVQLQQSGAELARPGASVKMSCKASGYTFTSYTMHWVKQRPGQGLEWIGYINPTSDYTNYNQKFKDKATLTADKSSSTAYMQLSSLTSEDSAVYFCASEGGFLYYFDYWGQGTTLTVSS
VL: DVLMTQTPLSLPVSLGDQASISCRSSQSIVHSNGNTYLEWYLQKPGQSPKLLIYKVSNRFSGVPDRFSGSGSGTDFTLKISRVEAEDLGVYYCFQGSHVPYTFGGGTKLEIKR
notes: also called AB264; B264 (Trx1-mIgG1)
B2: monoclonal antibody B266-1 (antibody, human IgG1)
light: QIVLTQSPAIMSASPGEKVTMTCSASSRISYMYWYQQKPGTSPKRWIYDTSKLASGVPARFSGSGSGTSYSLTISTMEAEDAATYYCHQRSSYPTFGAGTKLELKSVAAPSVFIFPPSDEQLKSGTASVVCLLNNFYPREAKVQWKVDNALQSGNSQESVTEQDSKDSTYSLSSTLTLSKADYEKHKVYACEVTHQGLSSPVTKSFNRGEC
heavy: not shown
notes: B266 with the Fc part changed to human IgG1; also called B266-1 (Trx1-hIgG1); B266-1 (hTrx1-hIgG1)

Tests used:
Peptide_047 [1] = target: T1, Peptide_047 (human); experiment: peptide microarray, head 0.08 ug (text 0.008 ug/mL)
T1 construct: 15-mer of hTrx1 on microarray
T1 peptide: TWCGPCKMIKPFFHS
Method: (§1) 5, 1, 0.2, 0.04, 0.008 and 0.0016 μg/mL serial dilutions were incubated on a single multi-well microarray slide at 30° C. for 1 hour. The slide includes 21 individual mini-arrays (one mini-array per sample dilution).
(§2) DyLight 650 was used as a label. False-positive binding to a peptide was evaluated by performing one additional control incubation in which only a secondary antibody was applied on the same microarray slide. Before performing each step, the microarrays were washed with a washing buffer.

Peptide_056 [2] = target: T2, Peptide_056 (human); experiment: peptide microarray, 5 ug/mL
T2 construct: 15-mer of hTrx1 on microarray
T2 peptide: KPFFHSLSEKYSNVI
Method: as §1, §2

Peptide_054 [3] = target: T3, Peptide_054 (human); experiment: peptide microarray, 5 ug/mL
T3 construct: 15-mer of hTrx1 on microarray
T3 peptide: MIKPFFHSLSEKYSN
Method: as §1, §2

Peptide_053 [4] = target: T4, Peptide_053 (human); experiment: peptide microarray, 5 ug/mL
T4 construct: 15-mer of hTrx1 on microarray
T4 peptide: KMIKPFFHSLSEKYS
Method: as §1, §2

Peptide_050 [5] = target: T5, Peptide_050 (human); experiment: peptide microarray, 5 ug/mL
T5 construct: 15-mer of hTrx1 on microarray
T5 peptide: GPCKMIKPFFHSLSE
Method: as §1, §2

Peptide_048 [6] = target: T6, Peptide_048 (human); experiment: peptide microarray, 5 ug/mL
T6 construct: 15-mer of hTrx1 on microarray
T6 peptide: WCGPCKMIKPFFHSL
Method: as §1, §2

Peptide_057 [7] = target: T7, Peptide_057 (human); experiment: peptide microarray, 5 ug/mL
T7 construct: 15-mer of hTrx1 on microarray
T7 peptide: PFFHSLSEKYSNVIF
Method: as §1, §2

Peptide_047 [8] = target: T1, Peptide_047; experiment: peptide microarray, 5 ug/mL
Method: as §1, §2

Peptide_052 [9] = target: T8, Peptide_052 (human); experiment: peptide microarray, 5 ug/mL
T8 construct: 15-mer of hTrx1 on microarray
T8 peptide: CKMIKPFFHSLSEKY
Method: as §1, §2

Peptide_046 [10] = target: T9, Peptide_046 (human); experiment: peptide microarray, 5 ug/mL
T9 construct: 15-mer of hTrx1 on microarray
T9 peptide: ATWCGPCKMIKPFFH
Method: as §1, §2

Peptide_055 [11] = target: T10, Peptide_055 (human); experiment: peptide microarray, 5 ug/mL
T10 construct: 15-mer of hTrx1 on microarray
T10 peptide: IKPFFHSLSEKYSNV
Method: as §1, §2

Peptide_049 [12] = target: T11, Peptide_049 (human); experiment: peptide microarray, 5 ug/mL
T11 construct: 15-mer of hTrx1 on microarray
T11 peptide: CGPCKMIKPFFHSLS
Method: as §1, §2

Peptide_056 [13] = target: T2, Peptide_056; experiment: peptide microarray, 1 ug/mL
Method: as §1, §2

Peptide_054 [14] = target: T3, Peptide_054; experiment: peptide microarray, 1 ug/mL
Method: as §1, §2

Peptide_053 [15] = target: T4, Peptide_053; experiment: peptide microarray, 1 ug/mL
Method: as §1, §2

Peptide_050 [16] = target: T5, Peptide_050; experiment: peptide microarray, 1 ug/mL
Method: as §1, §2

Peptide_048 [17] = target: T6, Peptide_048; experiment: peptide microarray, 1 ug/mL
Method: as §1, §2

Peptide_057 [18] = target: T7, Peptide_057; experiment: peptide microarray, 1 ug/mL
Method: as §1, §2

Peptide_047 [19] = target: T1, Peptide_047; experiment: peptide microarray, 1 ug/mL
Method: as §1, §2

Peptide_052 [20] = target: T8, Peptide_052; experiment: peptide microarray, 1 ug/mL
Method: as §1, §2

Peptide_046 [21] = target: T9, Peptide_046; experiment: peptide microarray, 1 ug/mL
Method: as §1, §2

Peptide_055 [22] = target: T10, Peptide_055; experiment: peptide microarray, 1 ug/mL
Method: as §1, §2

Peptide_049 [23] = target: T11, Peptide_049; experiment: peptide microarray, 1 ug/mL
Method: as §1, §2

Peptide_056 [24] = target: T2, Peptide_056; experiment: peptide microarray, 0.2 ug/mL
Method: as §1, §2

Peptide_054 [25] = target: T3, Peptide_054; experiment: peptide microarray, 0.2 ug/mL
Method: as §1, §2

Peptide_053 [26] = target: T4, Peptide_053; experiment: peptide microarray, 0.2 ug/mL
Method: as §1, §2

Peptide_050 [27] = target: T5, Peptide_050; experiment: peptide microarray, 0.2 ug/mL
Method: as §1, §2

Peptide_048 [28] = target: T6, Peptide_048; experiment: peptide microarray, 0.2 ug/mL
Method: as §1, §2

Peptide_057 [29] = target: T7, Peptide_057; experiment: peptide microarray, 0.2 ug/mL
Method: as §1, §2

Peptide_047 [30] = target: T1, Peptide_047; experiment: peptide microarray, 0.2 ug/mL
Method: as §1, §2

Peptide_052 [31] = target: T8, Peptide_052; experiment: peptide microarray, 0.2 ug/mL
Method: as §1, §2

Peptide_046 [32] = target: T9, Peptide_046; experiment: peptide microarray, 0.2 ug/mL
Method: as §1, §2

Peptide_055 [33] = target: T10, Peptide_055; experiment: peptide microarray, 0.2 ug/mL
Method: as §1, §2

Peptide_049 [34] = target: T11, Peptide_049; experiment: peptide microarray, 0.2 ug/mL
Method: as §1, §2

[35] = target: T12, human thioredoxin-1 (Trx1) (human, UniProt P10599 1-105); experiment: ELISA on 200 ng coated hTrx1
T12 construct: also called hTrx1; hTRX1
T12 sequence (looked up): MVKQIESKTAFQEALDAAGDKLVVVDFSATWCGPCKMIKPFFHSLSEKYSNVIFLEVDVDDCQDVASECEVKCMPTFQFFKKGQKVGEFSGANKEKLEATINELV
Method: A reaction solution was removed, followed by washing five times with 200 μL of 1×PBST. […] A reaction solution was removed, and washed five times with 200 μL of 1×PBST. 100 μL of a color reagent was dispensed into each well, and after a 10-minute reaction, 50 μL of 2.5M H₂SO₄ was dispensed into each well. After color development, the extent of the color development was assessed using an ELISA reader.

[36] = target: T12, human thioredoxin-1 (Trx1); experiment: ELISA on 100 ng coated Trx1, antibody titration, Prism fit
Method: 100 μl of a coating buffer and 100 ng of Trx1 were mixed and dispensed to each well, and then reacted at 4° C. for 16 hours or more. After the reaction solution was removed, 200 μl of PBSA was dispensed to each well and reacted at 37° C. for 120 minutes. […] After the reaction solution was removed, washing was performed by dispensing 200 μl of a washing buffer to each well. The above-described process was performed two times.
After the reaction solution was removed, washing was performed by dispensing 200 μl of a washing buffer to each well. The above-described process was performed three times.

Row | signal (blank-control = 1) (Peptide_047 [1]) | signal (blank-control = 1) (Peptide_056 [2]) | signal (blank-control = 1) (Peptide_054 [3]) | signal (blank-control = 1) (Peptide_053 [4]) | signal (blank-control = 1) (Peptide_050 [5]) | signal (blank-control = 1) (Peptide_048 [6]) | signal (blank-control = 1) (Peptide_057 [7]) | signal (blank-control = 1) (Peptide_047 [8]) | signal (blank-control = 1) (Peptide_052 [9]) | signal (blank-control = 1) (Peptide_046 [10]) | signal (blank-control = 1) (Peptide_055 [11]) | signal (blank-control = 1) (Peptide_049 [12]) | signal (blank-control = 1) (Peptide_056 [13]) | signal (blank-control = 1) (Peptide_054 [14]) | signal (blank-control = 1) (Peptide_053 [15]) | signal (blank-control = 1) (Peptide_050 [16]) | signal (blank-control = 1) (Peptide_048 [17]) | signal (blank-control = 1) (Peptide_057 [18]) | signal (blank-control = 1) (Peptide_047 [19]) | signal (blank-control = 1) (Peptide_052 [20]) | further results | Binder
1 | 1.52 | 2.86 | 1.46 | 6.49 | 0.54 | 2.15 | 2.44 | 4.89 | 5.14 | 6.2 | 3.57 | 1.11 | 2.58 | 1.43 | 8.52 | 0.47 | 3.91 | 2.19 | 4.07 | 4.43 | signal (blank-control = 1) (Peptide_046 [21]): 5.62; signal (blank-control = 1) (Peptide_055 [22]): 3.26; signal (blank-control = 1) (Peptide_049 [23]): 1.2; signal (blank-control = 1) (Peptide_056 [24]): 1.72; signal (blank-control = 1) (Peptide_054 [25]): 0.89; signal (blank-control = 1) (Peptide_053 [26]): 4.75; signal (blank-control = 1) (Peptide_050 [27]): 0.46; signal (blank-control = 1) (Peptide_048 [28]): 4.61; signal (blank-control = 1) (Peptide_057 [29]): 2.08; signal (blank-control = 1) (Peptide_047 [30]): 2.52; signal (blank-control = 1) (Peptide_052 [31]): 2.56; signal (blank-control = 1) (Peptide_046 [32]): 3.44; signal (blank-control = 1) (Peptide_055 [33]): 2.21; signal (blank-control = 1) (Peptide_049 [34]): 1.34; Kd [35]: 0.17 nM; reaction value (OD 490) relative to B266-1 [35]: ~50%; Kd [36]: 0.13 nM | B1
2 | 1.11 | 2.89 | 2.36 | 2.45 | 2.19 | 6.1 | 2.39 | 5.58 | 3.84 | 6.41 | 2.08 | 2.89 | 1.84 | 1.15 | 2.13 | 1.09 | 6 | 2.07 | 2.25 | 2.38 | signal (blank-control = 1) (Peptide_046 [21]): 3.18; signal (blank-control = 1) (Peptide_055 [22]): 1.38; signal (blank-control = 1) (Peptide_049 [23]): 1.96; signal (blank-control = 1) (Peptide_056 [24]): 1.24; signal (blank-control = 1) (Peptide_054 [25]): 0.84; signal (blank-control = 1) (Peptide_053 [26]): 1.66; signal (blank-control = 1) (Peptide_050 [27]): 0.65; signal (blank-control = 1) (Peptide_048 [28]): 5.99; signal (blank-control = 1) (Peptide_057 [29]): 1.94; signal (blank-control = 1) (Peptide_047 [30]): 1.58; signal (blank-control = 1) (Peptide_052 [31]): 1.38; signal (blank-control = 1) (Peptide_046 [32]): 2; signal (blank-control = 1) (Peptide_055 [33]): 1.04; signal (blank-control = 1) (Peptide_049 [34]): 1.45; Kd [35]: 0.21 nM; Kd [36]: 0.011 nM | B2
